Here are results for 25 sequences from a protein production outcome set (Wang et al. 2014).

This data set in a line: label from the status in PepcDB records.

Turning to “MISDNFFTEHMTIVIAVAIVLLLIIILLTCWKRVPADKALVITGLKKRVLTGKGGIQVPFLETSCIISLEAVSMTTDITEAPSKQGIFVDIAGTAVVKVDNNPEKVLIAVEQFCSGNADRTTQNIKTVVEQILEGKLRGIVSTLTVEQINEDRVAFENSIEDSITRELDNMGLRLLSYTVLKIATQGGYLENRAIPQIAQSKADADIASAERARDTEVKTAAAVREGQKAKLEAEAEIAQSDRDKTIRMEQYRAEQDKIKANADVSYKLQEIENNKIVADRNVELAKKEAQVVEEQLVASVKKPADAKKYETEVQAEANKIKSIKEAEARAQALKIEAQARADAKLLEAKAEAEAIRAQGEAEAEALKAKGIAEAEAKDRLAEAMEKYGEAAMMSMVVERLPEIMAQIAKPMEQIDKITVIDNGSGDGGSKVSKIVSDVAANGFEVLKDLTGADLGEVVRTIANKNSNNKPKTK”, the protein production entry is on record as “failed”.
In the case of “MISIPVAQQQKLPRLVLPRVYGFPPNRETLGGTAYLIVENDGNTLIDSPPWTDGSQHWLREQGGVKRLILTHRGAIARVRAIQDTFDCEVMIHAQEAYLLPQVTVTPFNHHLAIGETLEILWTPGHSPGSACVYWSCQGGVLFTGRHLLPTPTGELAPIKTATTFHWPRQLRSVEALKAFCRQKSLSYLCPGANMGFLRGTLAIANAQAVLQGLSVDNLLCDKFLEHHHHHH”, the protein production entry is “failed”.
The entry for “MISNALKQGNLSPELEEKLVCMQKQQENANSTNEWETCSRGSVNEEALTPSRQTDDTEWKIRTSLRRPNAMTTSSQFNRILKKNRSKNDEVAELGEQKQSQLERHKELLKKNILRKRSLLERNLQSEIHEDVKTKVQRHVRPLSNASPDEQSENERSGEPNLDFKR” is “failed”; for “MISPERLRVYRFFASLTDEQLKDIALISEEKSFPTGSVIFKENSKADNLMLLLEGGVELFYSNGGAGSAANSTVCSVVPGAIFGVSSLIKPYHYTSSARATKPVRVVDINGARLREMSENNQALGQVLMNNVAAAVLARLH” it is “not failed”.
The entry for “MISTFALFWALCIVCIINMARYYSSLRVLLMILRDCDPLLYQYVDGGGFFTSHGQPSKQIRLVGYIYAQRYLDHHDPEFIRRCERVRGQFLLTTALCGLIVISLIAMMMWY” is “failed”; for “MISVAHSPDADDIFMYYAIKFGWIDCPIKNKAFHNIALDIETLNQEALKNTYDVSAISFGLYPKIANDYALLPTATSFGNGYGPKLVKKKGVKLKKDFRVALSGEHTTNALLFKIYYKHARITYMNFLDIEKAVLEEKVHAGVLIHESILDFHNELEVEKELWDVWKELIEVDLPLPLGGMAIRRSIPLYRAILIKKALIKAVEVALKHQNLLSGMLLERSLIRVNKERLRTYLSLYANETSTRLSEIQILAIDKLFELGYQHGFYASLLKTKDCLLTDEYLKYRFS” it is “failed”; for “MITFIGHVSKDVNVVDGKREIAYGGGVVMGAITSSLLGVKTKVITKCTREDVSKFSFLRDNGVEVVFLKSPRTTSIENRYGSDPDTRESFLISAADPFTESDLAFIEGEAVHINPLWYGEFPEDLIPVLRRKVMFLSADAQGFVRVPENEKLVYRDWEMKEKYLKYLDLFKVDSREAETLTGTNDLRESCRIIRSFGAKIILATHASGVIVFDGNFYEASFRSWSLEGRTGRGDTCTAAFLVGFVFKKMSIEKATKFAAAVTSVKMRHPGPLRREDLEAISGDQYF” it is “not failed”.
For the sequence “MITGTLINALTVVFASLLGLAIGSRLSESIRGAIINVLGLAVLLIGISMALETKNVLIPTLSVVAGTAVGEVMGIEKALQSFGDRVERRLGKGRFSEGFVAATLLYCVGPMAILGPIQEGLTGDMSVLMAKSLLDGVASVALASALGIGVAFSSISILVYQGFFALLAAQLSSVVTERIIAEFTSTGGLLIMGIGINLLELRKLRVGNMLPALIFAPLIVAVLQLTGL”, the protein production result was “failed”.
As to “MITILIFINIVKVVLFLFFLMTGTKIISGKMADEFKRFGLPSFFNFLTGAFEIVGAIGMLIGIWISTVALWAGLLLGGTMLAAALTLIVLARDPFKKAIPALVLFVLSLGISLYHIF”, the protein production entry is reported as “failed”.
As for “MITLQKAEASDLEKIIAIQRASFKAVYEKYHDQYDPYVEEVEQIRWKLVERPDCFYHFVLVDETIVGFLRLVIKDEEKRAWLGTAAILPQYQGQGYGSAAMALLEKTYPKLTKWDLCTIAQEKLMVSFYEKCGYHSTHTEPEQEGMDMVYMTKKIE”, the protein production entry was “failed”.
For “MITLTTDFGLKGPYVGEMKVAMLRINPNAKIVDVTHSVTRHSILEGSFVMEQVVKYSPKGTVHVGVIDPGVGTERRAIVIEGDQYLVVPDNGLATLPLKHIKVKSVYEIIPDKIRKFTGWEISSTFHGRDIFGPAGALIEKGIHPEEFGREIPVDSIVKLNVEPRKEGDVWILKVIYIDDFGNVILNLENYEKPRTVELLDFNLRLPYLETYGLVEKGEMLALPGSHDYLEIAVNMGSAAERLNVKVGDELRVRLL”, the protein production result was “not failed”.
In the case of “MITRSEIFEYAEKTFGAKPDYPFKTYPHYAILRHLDDQKWFGLVMNVPKDKLGLEGEGDVDVIDIKCHPDKVHDLKIKAGFLPAYHMNKEHWLTAVLDGSVTKEEVFSLLAESYELTK”, the protein production entry is “failed”.
Take “MITYHSNALQSERQMYVWTPPGYTGMGEPLPVLYFYHGFGDTGRSAIDQGRIPQIMDNLLAEGKIKPMLVVIPDTETDAKGIIPEDFVPQERRKVFYPLNAKAADRELMNDIIPLISKRFSVRKDADGRALAGLSQGGYQALVSGMNHLESFGWLATFSGVTTTTVPDEGVAARLNDPAAINQQLRNFTVVVGDKDVVTGKDIAGLKTELEQKKIKFDYQEYPGLNHEMDVWRPAYAAFVQKFKIRHLEHHHHHH”: the protein production result was “failed”.
Consider “MIVAAPEQYSRDRDWQQAIAAGELTLALQPQMGLRNRQLRGFEVQLRWQHPQQGTLLASQLMEHLEQSQHRETVGRWFLDQAGQLLSQWRNSAQFSGLFALSLLPQQWKSPSFIHDLRSLLETYQIPPEQLELDLPAQSLAESAAESWDWVYAVRDLGIGIGLADFGSRSIGLYDLRNLPLTTLKLERRFVRGLPDDANDRAIVRGVVAMSQALKVRIVARGVDTVDQAKFLARAECDAMQGLAYSAPLEHHHHHH”, for which the protein production result is “failed”.
Next, “MIVFVRFNSSYGFPVEVDSDTSIFQLKEVVAKRQGVPADQLRVIFAGKELQNHLTVQNCDLEQQSIVHIVQRPQRKSHETNASGGDKPQSTPEGSIWEPRSLTRVDLSSHILPADSVGLAVILDTDSKSDSEAARGPAAKPTYHSFFVYCKGPCHKVQPGKLRVQCGTCRQATLTLAQGPSCWDDVLIPNRMSGECQSPDCPGTRAEFFFKCGAHPTSDKDTSVALNLITNNSRSIPCIACTDVRNPVLVFQCNHRHVICLDCFHLYCVTRLNDRQFVHDAQLGYSLPCVAGCPNSLIKELHHFRILGEEQYNRYQQYGAEECVLQMGGVLCPRPGCGAGLLPEQGQRKVTCEGGNGLGCGFVFCRDCKEAYHEGECDSMFEASGATSQAYRVDQRAAEQARWEEASKETIKKTTKPCPRCNVPIEKNGGCMHMKCPQPQCKLEWCWNCGCEWNRACMGDHWFDV”: “failed”.
Turning to “MIVFYDSWCPMCTAVAERTKKLDKKGKVKFVSFRDEDVVEKYELSQELQSKMEQRLYIFKNNKWYDGIHSIHVLAKSIPSYWFAVPFIKLSIVLGFGNKVYDYIANNRKLVPVGHCRGGVCEIPTKK”, the protein production result is “failed”.
The entry for “MIVGGRRAPLPRFFSRPVEFAALSLDPEKDPIDVFDDAYFFVHAAFSHVPGKYRGGEGDDPKSFHRLNLDGTVRLFEAAKRAGTRRCVFLSSRAAYGDYPPGIELVETMLPKPETLYGQIKLDAEGALTHLSAPGFAGVSLRATGVYGDLTPGKWDDLIADYLAGRPVAARAGTEVHGRDLGRAVRLMLETESTRISGEVFNISDITVDTQDILAPIRRETSGPHALPPPADKAALNPMSTAKIRALGWMPGGTPLFEETMRRLAAALPVSPRHRSAQDRQASSSGGRQPQTGTT” is “failed”; for “MIVGRDGVGVVEHAEQGPRIAVAVVTMGNRPAEVDALLASVAKQDLPPARIVIVGNGCPLPEFARRLDLPGEVTGIEVDENLGCPGGRNVALAKLREFGDVDVVVELDDDGLLVDADVLRRVRDLYAADPRLGIVGFRIADENGETQRRHVPRVGKSDPLRGGPVTGFLGGGHALSMAMLARTGDWPAEFFFAHEETDLAWRATDAGWTILYAPELLLQHPKTSPARHAIYHRVTARNRVWLARRRLPLPLIPVHLGIWIAVTLVRTRSAGGLRAWFGGFMEGVRTSGGERRPMRWRTVWRLTRLGRPPVILEHHHHHH” it is “failed”; for “MIYPDETMLYAPVEWHDCSEGYTDIRYEKSTDGIAKITINRPQVRNAFRPLTVKEMIQALADARYDDNVGVIILTGEGDKAFCAGGDQKVRGDYGGYQDDSGVHHLNVLDFQRQIRTCPKPVVAMVAGYSIGGGHVLHMMCDLTIAAENAIFGQTGPKVGSFDGGWGASYMARIVGQKKAREIWFLCRQYDAQQALDMGLVNTVVPLADLEKETVRWCREMLQNSPMALRCLKAALNADCDGQAGLQELAGNATMLFYMTEEGQEGRNAFNQKRQPDFSKFKRNP” it is “not failed”.
As for “MIYWLSLASAAFIGLAALVWKMSAIARENRVLKAEFSLGRLKKELNVFFISDIHRRTVSEDIICEVKERGVQLVIIGGDLAEGGVPYTRIEENIKRLSSLGKTYFVWGNNDYEVDQERLLEIFKTYGVTPLRNASVLHDHQGQTVNICGVDDIRLELDDYPAALGGVQPGFPTVLVSHNPEIHHQIQEADGIDLILSGHTHGGQIRFGRFGLCEIGGTGTVFKAPYLISNGYGTSKLPLRLGARPETHLINLVPGPRMEGN”, the protein production entry is given as “failed”.
On to “MIYYGTMFDHKVRFSIVRMREVVEEARNRHALSYLATVVLGRALIGAALVTPWLAEKERWTLDIEGNGPIRRVVAQSTSEFTVRGYVANPKVELPLNEKGKFDVAGAIGQGVLRVVRDLGLKTPFVSQVPLVSGEIAEDLAYYFAVSEQIPSAFSIGVLVDSDGVKIAGGFAVQIIDRTLEQEKVEMIEKNIKNLPSISKLFQEAEPLDVLERIFGEKVGFVETAEIKYKCDCNREKAKNALLVLDKKELEDMRKEGKGEVVCKWCNTRYVFSEEELEELLKFKVDDSGS”, for which the protein production result is reported as “not failed”.
For “MKADKWNHVETARYFRDLQENEVRTMHYLGLAYVVLSRRPNLQLKVPLSTQNYEDGAIVGAGERGGYALQLLFTCAANYPLARPLVEIVEKRNVSDAFEQVLRKEIDLILEEHLGLQMIVPVVTRLQITLNTEMKR”, the protein production entry is “not failed”.
As for “MKAELIAVGTEILTGQIVNTNAQFLSEKMAELGIDVYFQTAVGDNEERLLSVITTASQRSNLVILCGGLGPTKDDLTKQTLAKYLRKDLVYDEQACQKLDDFFAKRKPSSRTPNNERQAQVIEGSIPLPNKTGLAVGGFITVDGISYVVLPGPPSELKPMVNEELVPLLSKQYSTLYSKVLRFFGIGESQLVTVLSDFIENQTDPTIAPYAKTGEVTLRLSTKTE”, the protein production result is listed as “failed”.
The entry for “MKAGIHPDYKKVVFMDTNTGFKFLSGSTKGSNETVEWEDGNTYPLLKVEISSDSHPFYTGRQKFATADGRVDRFNKKYGLK” is “failed”.
Consider “MKAIILAGGHSVRFGKPKAFAEVNGETFYSRVIKTLESTNMFNEIIISTNAQLATQFKYPNVVIDDENHNDKGPLAGIYTIMKQHPEEELFFVVSVDTPMITGKAVSTLYQFLVSHLIENHLDVAAFKEDGRFIPTIAFYSPNALGAITKALHSDNYSFKNIYHELSTDYLDVRDVDAPSYWYKNINYQHDLDALIQKLLEHHHHHH”, for which the protein production entry is on record as “not failed”.
